{
  "source": "patent US20180298083A1",
  "key": {"[1]": {"target": "HIV-1 YU2 gp120 (HIV-1 strain YU2) (UniProt P35961)", "test": "competition ELISA on gp120 YU2, unlabelled CD4-Ig against CD4Ig-biotin"}, "[2]": {"target": "G471A (HIV-1)", "test": "gp120 capture ELISA"}, "[3]": {"target": "G473A (HIV-1)", "test": "gp120 capture ELISA"}, "[4]": {"target": "D368A (HIV-1)", "test": "gp120 capture ELISA"}, "[5]": {"target": "P369A (HIV-1)", "test": "gp120 capture ELISA"}, "[6]": {"target": "I371A (HIV-1)", "test": "gp120 capture ELISA"}, "[7]": {"target": "E370A (HIV-1)", "test": "gp120 capture ELISA"}, "[8]": {"target": "G366A (HIV-1)", "test": "gp120 capture ELISA"}, "[9]": {"target": "N197T (HIV-1)", "test": "gp120 capture ELISA"}, "[10]": {"target": "S365A (HIV-1)", "test": "gp120 capture ELISA"}, "[11]": {"target": "G367A (HIV-1)", "test": "gp120 capture ELISA"}, "[12]": {"target": "N332A (HIV-1)", "test": "gp120 capture ELISA"}, "[13]": {"target": "N262A (HIV-1)", "test": "gp120 capture ELISA"}, "[14]": {"target": "M373A (HIV-1)", "test": "gp120 capture ELISA"}, "[15]": {"target": "N280A (HIV-1)", "test": "gp120 capture ELISA"}, "[16]": {"target": "M475A (HIV-1)", "test": "gp120 capture ELISA"}, "[17]": {"target": "G472A (HIV-1)", "test": "gp120 capture ELISA"}, "[18]": {"target": "R476A (HIV-1)", "test": "gp120 capture ELISA"}, "[19]": {"target": "K282A (HIV-1)", "test": "gp120 capture ELISA"}, "[20]": {"target": "D457A (HIV-1)", "test": "gp120 capture ELISA"}, "[21]": {"target": "I467A (HIV-1)", "test": "gp120 capture ELISA"}, "[22]": {"target": "R469A (HIV-1)", "test": "gp120 capture ELISA"}, "[23]": {"target": "D167N (HIV-1)", "test": "gp120 capture ELISA"}, "[24]": {"target": "D474A (HIV-1)", "test": "gp120 capture ELISA"}, "[25]": {"target": "T283A (HIV-1)", "test": "gp120 capture ELISA"}, "[26]": {"target": "V372A (HIV-1)", "test": "gp120 capture ELISA"}, "[27]": {"target": "D279A (HIV-1)", "test": "gp120 capture ELISA"}},
  "data": [
    {"substance": "CD4-Ig (from UniProt P01730 26-203) (Fc fusion)", "values": [
      {"measurement": "IC50 (read off the curve)", "setting": "[1]", "result": 0.06, "unit": "µg/mL"},
      {"measurement": "Binding affinity relative to WT (%)", "setting": "[2]", "result": 141, "unit": "%"},
      {"measurement": "Binding affinity relative to WT (%)", "setting": "[3]", "result": 0, "unit": "%"},
      {"measurement": "Binding affinity relative to WT (%)", "setting": "[4]", "result": 5, "unit": "%"},
      {"measurement": "Binding affinity relative to WT (%)", "setting": "[5]", "result": 54, "unit": "%"},
      {"measurement": "Binding affinity relative to WT (%)", "setting": "[6]", "result": 12, "unit": "%"},
      {"measurement": "Binding affinity relative to WT (%)", "setting": "[7]", "result": 5, "unit": "%"},
      {"measurement": "Binding affinity relative to WT (%)", "setting": "[8]", "result": 7, "unit": "%"},
      {"measurement": "Binding affinity relative to WT (%)", "setting": "[9]", "result": 25, "unit": "%"},
      {"measurement": "Binding affinity relative to WT (%)", "setting": "[10]", "result": 34, "unit": "%"},
      {"measurement": "Binding affinity relative to WT (%)", "setting": "[11]", "result": 3, "unit": "%"},
      {"measurement": "Binding affinity relative to WT (%)", "setting": "[12]", "result": 57, "unit": "%"},
      {"measurement": "Binding affinity relative to WT (%)", "setting": "[13]", "result": 2, "unit": "%"},
      {"measurement": "Binding affinity relative to WT (%)", "setting": "[14]", "result": 91, "unit": "%"},
      {"measurement": "Binding affinity relative to WT (%)", "setting": "[15]", "result": 75, "unit": "%"},
      {"measurement": "Binding affinity relative to WT (%)", "setting": "[16]", "result": 117, "unit": "%"},
      {"measurement": "Binding affinity relative to WT (%)", "setting": "[17]", "result": 2, "unit": "%"},
      {"measurement": "Binding affinity relative to WT (%)", "setting": "[18]", "result": 79, "unit": "%"},
      {"measurement": "Binding affinity relative to WT (%)", "setting": "[19]", "result": 53, "unit": "%"},
      {"measurement": "Binding affinity relative to WT (%)", "setting": "[20]", "result": 3, "unit": "%"},
      {"measurement": "Binding affinity relative to WT (%)", "setting": "[21]", "result": 115, "unit": "%"},
      {"measurement": "Binding affinity relative to WT (%)", "setting": "[22]", "result": 7, "unit": "%"},
      {"measurement": "Binding affinity relative to WT (%)", "setting": "[23]", "result": 58, "unit": "%"},
      {"measurement": "Binding affinity relative to WT (%)", "setting": "[24]", "result": 45, "unit": "%"},
      {"measurement": "Binding affinity relative to WT (%)", "setting": "[25]", "result": 55, "unit": "%"},
      {"measurement": "Binding affinity relative to WT (%)", "setting": "[26]", "result": 73, "unit": "%"},
      {"measurement": "Binding affinity relative to WT (%)", "setting": "[27]", "result": 49, "unit": "%"}
    ]}
  ]
}
